Assay: soluble on expression in E. coli; label from the status in PepcDB or PDB records

Sequence | soluble on expression in E. coli
MSLQRARCYLIGETAVVLELEPPVTLASQKRIWRLAQRLVDMPNVVEAIPGMNNITVILRNPESLALDAIERLQRWWEESEALEPESRFIEIPVVYGGAGGPDLAVVAAHCGLSEKQVVELHSSVEYVVWFLGFQPGFPYLGSLPEQLHTPRRAEPRLLVPAGSVGIGGPQTGVYPLATPGGWQLIGHTSLSLFDPARDEPILLRPGDSVRFVPQKEGVCEGHHHHHH | not soluble
MGQSFSSSFNAKQTSSSTPQKSTKTPTCSDPRSPSQDIERTPIQVKTVENDENGSSESSTTKADKPRKTSLRQKMFARKKNMNSETDE | not soluble
MGSDKIHHHHHHMTQTPKPPLTIYLAAPRGFCAGVDRAIKIVEMALEKWGAPVFVRHEIVHNKYVVDDLKAKGAVFVEELSDCPDDRPVIFSAHGVPKSVPQAAAARQMVYVDATCPLVSKVHIEAQRHSDNGLQMVMIGHKGHPETIGTMGQLPDGEVLLVETVEDVATVEVRDPSRLAFVTQTTLSVDDTIEIVEALTTRFPAIVGPHKEDICYATTNRQEAVKAMAPKAEAMLVVGAPNSSNSKRLVEVGSRAGCAYSQLVQRAADIDWRALGDIKTLGITAGASAPEVLIEEVIQAFEDRFDVTRELVETAVENVEFKVPRVLRETA | not soluble
GSPHMDEISETNTIFKLEGVSVLSPLRKKLDLVFYLSNVDGSPVITLLKGNDRELSIYQLNKNIKMASFLPVPEKPNLIYLFMTYTSCEDNKFSEPVVMTLNKENTLNQFKNLGLLDSNVTDFEKCVEYIRKQAILTGFKISNPFVNSTLVDTDAEKINSFHLQCHRGTKEGTLYFLPDHIIFGFKKPILLFDASDIESITYSSITRLTFNASLVTKDGEKYEFSMTDQTEYAKIDDYVKRKQMKDKSMSEELKAKSKSKG | soluble
MWRCIVVISSDRRPEMPFKPLVTAGIESLLNTFLYRSPALKTARSRLLGKVLRVEVKGFSTSLILVFSERQVDVLGEWAGDADCTVIAYASVLPKLRDRQQLAALIRSGELEVQGDIQVVQNFVALADLAEFDPAELLAPYTGDIAAEGISKALRGGAKFLHHGIKRQQCYVAEAITEEWRMAPGPLEVAWFAEETAAVERAVDALTKRLEKLEAK | not soluble
MRDTLVLNASFEPLSTVTLNRAVILVLQDKAVVEQAHPELRMRGAALDIPVPRVIRLCRYVRVPFRRQAPWSRRGVLVRDRHRCAYCGRRATTVDHVVPRAQGGQDSWLNTVASCAEDNHRKAARTPEQAGMPLLRQPFEPTPADAMLLALGQDDFESLPEWLAQPAALEHHHHHH | not soluble
MWSEKHKSGKVNFVERYKHPYTGKWCRASVLMEKDTPRIRKEAQKYLDEKISEILTSLTTTDAYLLDVMNEWWEHHQKSLKSTSVRSLDFRIRELRNLIDPEVMIAKITTKYLQSIIDKIPGSYDKRKRARQLLKQTFDYAIALEYVSINPVISTQLAKPVKTIKDFEDVAQKFLEKDELKRLLDEMYRRKGSIKMAYLAEFMSLNGCRIGEALAIQPDNIKNDIIEIHGTLDYTSNGYRNAIKTTPKTNSSWRETLITKREKEIIQDILKINALEKNTNPNYKDMGYIFISRNGVPIQDNALNTSIRAANKRLEKPIQKELTSHIFRHTLVSRLAENKVPLKTIMDRVGHADSKTTQQIYTHVTKSMKNEVVDILNRL | not soluble
MAVLYLVGTPIGNLADITYRAVDVLKRVDMIACEDTRVTSKLCNHYDIPTPLKSYHEHNKDKQTAFIIEQLELGLDVALVSDAGLPLISDPGYELVVAAREANIKVETVPGPNAGLTALMASGLPSYVYTFLGFLPRKEKEKSAVLEQRMHENSTLIIYESPHRVTDTLKTIAKIDATRQVSLGRELTKKFEQIVTDDVTQLQALIQQGDVPLKGEFVILIEGAKANNEISWFDDLSINEHVDHYIQTSQMKPKQAIKKVAEERQLKTNEVYNIYHQIS | not soluble
GMSTSPADTARYNRFVADLFGMMAYGELSAFERFSADARYSPTLHDRAVLGRIAVVEFRHYELVSARLEAMGIDAEDAMLPFQAAVDYFHSRTRPADWYESLMKAYVIDTVSADFYRAISRYVDAGTRDVIEQIQASDETTEVLRERLRSALADDPRLASRLALWGRRLLGEALTQAQRVSYEHAFLGSLIGGEDSAAAKELVSGLIAGLAEKHSKRMTQLGLTG | soluble
MAHHHHHHMNKEHILFDSFPLTFLSDEVDCSNFEDEQERTYRERIAQMTEELKSLRMEITEKHSIRSMLEEKVAMLQNEEQTKQNNLKYVLNFCDKQMYERELGNFHNHLEQLRKQIQNSNCKIKLLIEKEFKVRKQLQLRYMKLYDLLNERVRYILGDYVKHRKCACAIFAYRQEGQR | not soluble
MGSDKIHHHHHHMTQDFSEIFAKYEALVADVDNVFKRVQEAHPECVTCEKGCSDCCYAVFDLSLVEAMYLNHRFGQKFSFGPERSVIVERADETDRKLVKLKRQAHRDVQNGRDAEEILQDMGRVRVRCPLLGETDGCELYEYRPITCRLYGIPTAIGGKAHSCGKSAFLAGKQYPTVNIDRIHERLAQLSLEIRDAVHSRFSELHTVLVPVSMALLTTYDDAYLGAGATAKGNE | not soluble
MIVRGGGDLATGVIQKLWHVGFKILVLETECPLAIRRTVSVCDAIFQKEQRVEDLVAVRITSLKDCAKCWQQNKLPVFVDQTASAIQQLKPLIVIDAILAKKNLGTHRGMAPITIALGPGFSAPQDVDVVIETMRGHRLGRLYFEGTALPNTGIPGEIGGKSAERVVHAPASGQVTHLKNIGDLVLKGEALFLIDQVPVYSPLTGTLRGLISEKVTCYQGLKCADVDPRPVEKVDCLTISDKARALGGAVLEAIFMIGRRKNVL | not soluble
MIVLVTGATAGFGECITRRFIQQGHKVIATGRRQERLQELKDELGDNLYIAQLDVRNRAAIEEMLASLPAEWCNIDILVNNAGLALGMEPAHKASVEDWETMIDTNNKGLVYMTRAVLPGMVERNHGHIINIGSTAGSWPYAGGNVYGATKAFVRQFSLNLRTDLHGTAVRVTDIEPGLVGGTEFSNVRFKGDDGKAEKTYQNTVALTPEDVSEAVWWVSTLPAHVNINTLEMMPVTQSYAGLNVHRQ | soluble
MTESIDGNPWRILELVAENEYHLEQDNNVDQLEQFSVIPGFQEELVEFAKKKLLDSIEVQQFLVERDIEFQEKNIASLIDELSDNQDDESNSKEIHLELKSSKNKYEGLRKKIASFKGRQQKAVGFLNSGLEEIRILTSPNDKFCYKVKNASWRCSVDNSIDLQKIKLICEKLIGLEKKMEVTFWTSEIMKLLENLDQRHYAVAFGIIIGMATWEYENSEKYHLLALIHLSIGRDETKTDVLLYWENWENESIEQSIVSLRILMIFYMKISIDDLECRENFEFRICQVIVFILEHKEFESSHLTMITELLGSIEQRFGNFTEMCDIMFTHFEAKAQMFDSYEAKMLVFMRNEHLSLLQTQHIDQCMDTLNILILLYLKIKIDKWTYREIIEQRISQFIICILEHTEFQSIHLTLIIQHLESIEQQFGCFSGKFDNMFKIFELKLQILDRPEQERVSKWIKSLSLRSSISEFSSEHSHSTVTVIEHSEKTYELEQNVRIDLEETLKLEKRIEEVSIEESKKKQEKLELKQREEEEARIKEEEEKQRKILEEEARKKQEEEEARLKAEEELKIYEEEKRKKELEEERKKKEELEIKRKAEEEKKKKALEEEKKRKIAEEKARQKQEKERKKQANKCTFLQNFTFIRHQHPSQTYNERVLDGKVVGLYFSAHWCPPSRDFTPVLAQFYSQVEDNFEILFVSSDNNTQEMNFYLQNFHGDWFHLPLNLCNSMKHRNTKNHIPALIIMKPDGTVITDDGRNLVSQWINDPKALVNHWKAMLN | not soluble
MGSDKIHHHHHHMKTRDRIVHASLELFNLNGEPGITTNHIAAHLGMSPGNLYYHFRNKEDIIRSIFDLYQQHLEKGFQPYENKQVDMALLMGYFDALFYTLWQFRFMYANLVIILGRDEELKQKYLGIQQQVLARSSNILQQLKKDKVLDIADDEITPLADTIRMIAGFWISNQLTYSGAANITKSSLYEGLLRVLMLFKAYSTSDSFETFKHLEQHYRTLALEDDQ | not soluble
MGLKPCDYPDIKHGGLYHENMRRPYFPVAVGKYYSYYCDEHFETPSGSYWDHIHCTQDGWSPAVPCLRKCYFPYLENGYNQNHGRKFVQGKSIDVACHPGYALPKAQTTVTCMENGWSPTPRCIRVKTCSKSSIDIENGFISESQYTYALKEKAKYQCKLGYVTADGETSGSITCGKDGWSAQPTCI | soluble
